{"source": "patent US9505841B2", "about": "“Use of an anti-Ang2 antibody” (Samsung Electronics Co., Ltd., priority 2013, dated 2016)", "molecules": {"B1": {"name": "10D6: mouse anti-Ang2 monoclonal antibody from hybridoma KCLRF-BP-00295; heavy chain variable region SEQ ID NO: 7, light chain variable region SEQ ID NO: 9 (antibody, V domains shown)", "VH": "DVQLQESGPGLVKPSQSLSLTCTVTGYSITSDYAWNWIRQFPGNKLEWMGYINYSGNTDYNPSLKSRSSITRDTSKNQFFLQLNSVTTGDTATYYCARGNFEGAMDYWGQGTSVTVSS", "VL": "SIVMTQTPKFLLVSAGDRVTITCKASQSVSNDVAWYQQKPGQSPKLLIYYASNRYPGVPDRFTGSGYGTDFTFTISTVQAEDLAVYFCQQDYSSPWTFGGGTKLEIK", "modifications": "Synthetic (Heavy chain variable region of an anti-Ang2 antibody); Synthetic (Light chain variable region of anti-Ang2 antibody)"}}, "key": {"mutant Ang2 protein": {"tested_on": "mutant Ang2 protein", "assay": "Epitope ELISA with alanine-mutated Ang2 proteins", "type": "binding, human", "conditions": "A449 substituted with alanine", "method": "To verify the epitope (or specific binding site) of the anti-Ang2 antibody prepared in Example 2, an ELISA was performed using a recombinant protein where a receptor binding domain (RBD) of Ang2 protein in the form of being tagged with Flag was mutated by artificial means.\nEach well of a 96-well MaxiSorp™ flat-bottom plate (Nunc) was coated with 50 ul (microliter) of 1000 nM antibody. Then, the plate was washed five times with 0.05% (v/v) Tween-20-containing PBS (PBST) and blocked with 1% (v/v) BSA-containing PBS at a room temperature for 2 hours. 250 ng of each mutant Ang2 protein obtained by substituting S417, Q418, P419, N421, 1434, D448, A449, P452, Y460, N467, K468, or F469 residue of Ang2 protein tagged with a FLAG sequence (DYKDDDDK, Sigma) at its N-terminal with alanine was added to each well of the plate, which was then allowed to react at a room temperature for 2 hours. […]\nFinally, 50 ul of TMB substrates (Cell signaling) was added to each well of the plate to induce color development at a room temperature for 3 min. and the reaction was ceased by the addition of 50 ul of Stop solution (Cell signaling) and then, OD450 values were measured on a plate reader (Molecular Devices). […]"}, "Tie2 receptor": {"tested_on": "Tie2 receptor", "assay": "Tie2, Akt and 42/44 phosphorylation in HUVEC: antibody 10D6 versus 10D6 Fab", "type": "cell-based, human", "conditions": "60 nM 10D6 antibody or 10D6 Fab with 40 nM Ang2", "method": "To see whether the activation of a Tie2 receptor is resulted from the dimerization of antibody 10D6, Fab fragments of antibody 10D6 were purified and then used for this experiment. The Fab fragments were obtained from antibody 10D6 using an Fab Preparation Kit (Pierce). As a digestion buffer, PBS containing 20 mM EDTA and 20 mM L-Cysteine was used, and the antibody was separated into Fab and Fc by the treatment with an immobilized papain at a room temperature for 2 hours. The Fc fragments were removed from the reaction solution using MabSelectSuRe column (GE Healthcare) to isolate and purify pure Fab fragments only.\nHUVEC (ATCC) cells (1×10^6) were cultured in a 100 mm culture dish using EGM-2 (Lonza) media at 37° C. and when they reached 80˜90% confluency, the media were replaced with serum-free media (Lonza) and cultured at 37° C. for 6 to 16 hours. The dish was washed once with PBS and after the replacement with […] sodium orthovanadate (Sigma)-mixed serum free media (Lonza), they were further cultured for 10 min. After washed once with PBS, the cultured cells were treated with a mixture prepared by mixing 60 nM of 10D6 Ang2 antibody or 10D6 Fab with 40 nM of Ang2 protein (R&D systems) and letting them stand for 20 min. and further cultured for 10 min. […]"}, "E-selectin": {"tested_on": "E-selectin", "assay": "LPS-induced mRNA expression of E-selectin in HUVEC (qPCR)", "type": "cell-based, human", "conditions": "100 ng/ml LPS 5 hours, 0.2 ug/ml Ang1 or 0.1 ug/ml Ang2 + 0.5 ug/ml antibody", "method": "To see anti-inflammatory effects by antibody 10D6, HUVEC (ATCC) cells (4×10^5) were treated with Ang2 alone or Ang2 together with antibody 10D6, and a group in which Ang1 and Ang2 (R&D systems) and Regeneron Co. antibody (RG antibody) were co-treated was included as a control group. HUVEC cells were treated with 0.2 ug/ml of Ang1, 0.1 ug/ml of Ang2, or 0.1 ug/ml of Ang2 and 0.5 ug/ml of antibody, respectively and after 30-min. pre-incubation, they were treated with 100 ng/ml of LPS (Sigma) to induce inflammatory response and incubated for 5 hours.\nThe degree of the inflammatory response was identified by measuring the mRNA expression degree of an inflammatory adhesion substance (ICAM-1, E-selectin). The cells were washed using PBS, RNA was extracted using RNeasy Mini kit (Qiagen), and among them, 2 ug of RNA was synthesized into cDNA using Transcriptor First Strand cDNA synthesis kit (Roche). qPCR reaction was performed using RT2 SYBR™ Green Mastermix (Qiagen) and LightCycler™ 480 Real-Time PCR System (Roche). As an internal control for calibrating the amount of RNA in a sample, HPRT1 was used, and qPCR complied with the following procedures with regard to all the primers.\nStep 1: 95° C., 10 min; Step 2 (45 cycles): Step 2-1: 95° C., 15 sec; Step 2-2: 60° C., 1 min; Step 3: 65° C., 15 sec; Step 4: 95° C., continuous (every 20° C.); Step 6: 40° C., 10 sec."}}, "data": [{"molecule": "B1", "values": [{"measurement": "binding affinity (%) with mutant Ang2 against the binding affinity with the native Ang2, 449", "setting": "mutant Ang2 protein", "result": 97.86, "unit": "%"}, {"measurement": "phosphorylation of Tie2, Akt and 42/44", "setting": "Tie2 receptor", "result": "occurred"}, {"measurement": "expression of E-selectin induced by LPS", "setting": "E-selectin", "result": "remarkably suppressed"}]}]}
